Data from publication PMC7041945, “Misfolded proteins bind and activate death receptor 5 to trigger apoptosis during unresolved endoplasmic reticulum stress” (eLife, 2020).

How the values were obtained:
Type in all cases: cell-based, Homo sapiens
[1] = test system: caspase 8 in HCT116 GFP-Trap immunoprecipitates; assay: Caspase 8 activity (caspase glo 8) of GFP immunoprecipitates (beads)
Description: 15 cm dishes were seeded with 4 million HCT116 cells and allowed to recover for 18 hr prior to transfection. Samples were then transfected for 24 hr with the GFP-tagged ER trafficked protein, cytosolic GFP, or empty vector. To harvest apoptotic and living cells for each sample, all media and washes were collected. Cells were scraped in 2 ml of cold PBS and combined with the media and washes. Samples were centrifuged to pellet cells, washed with 1 ml cold PBS, and flash frozen in liquid N2 prior to lysis.
The cell pellets were resuspended in 750 μl of 30 mM HEPES pH 7.2, 150 mM NaCl, 1% Triton X-100 with 1x Roche protease inhibitor cocktail (if used subsequently for caspase glo 8 assay) or with 5x Roche protease inhibitor cocktail (if used for immunoblotting). The cells were lysed by mechanical shearing through a 25G needle for 13–15 plunges followed by incubation on ice for 30 min. The lysate was centrifuged at 2000xg for 5 min to remove debris and then incubated with 30 μl of GFP-Trap magnetic agarose beads (Chromotek gtma-20) for 4 hr at 4°C. The beads were then washed with 750 μl of lysis buffer for 10 min at 4°C for three rounds.
For measuring caspase activity, a fifth of the beads was resuspended in 40 μl of 30 mM HEPES pH 7.2, 150 mM NaCl, 1% Triton X-100. 10 μl of the resuspended mixture was incubated with 10 ul of the caspase glo 8 luminogenic substrate (Promega #PRG8200) for 45 min at RT before measuring luminescence.

[2] = test system: caspase 8 in HCT116 lysates; assay: Size-exclusion chromatography of cell lysates with caspase 8 activity; conditions: relative to GFP; 24 hr
Description: Size-exclusion fractionation of cell lysate was performed as previously described in [Lu et al. (2014)] with minor modifications.
In a 15 cm dish, 4 million HCT116 cells were seeded 18 hr prior to transfection (see Transient transfections for protein expression). 24 hr post-transfection, cells were harvested by collecting all media (to collect detached, dying cells) and scraping the dish in 3 ml of cold PBS. The cell suspension was centrifuged at 500xg to pellet the sample. Cells were washed with an additional 1 ml of cold PBS, pelleted, and flash frozen in liquid N2 prior to lysis.
Cells were resuspended in 600 μl of lysis buffer (30 mM HEPES pH 7.2, 150 mM NaCl, 1% Triton X-100) with 1x protease inhibitor (Roche) and lysed through a 25G needle with 10 passes. […]
For the caspase 8 activity assay, 10 μl of each fraction was incubated with 10 μl of the caspase glo 8 substrate (Promega #PRG8200) in a 384-well white walled plate (Corning 3574) for 45 min at RT before measuring luminescence on a Spectramax-M5 plate reader.
For Western blots, every three fractions were pooled for a total of 1.5 ml and subjected to TCA precipitation to concentrate the protein content. Samples were then analyzed by SDS-PAGE and immunoblotted for GFP and DR5.

[3] = test system: GADD34 mRNA in HCT116 cells; assay: qPCR of GADD34 transcript; conditions: norm to GAPDH

average fold change in caspase 8 activity relative to empty ([1]; GFP IP beads, run 2019-02-05) [fold] | average fold change (relative to empty average) ([1]; GFP beads, dilution 0.0666667, average of rep1-rep3) | fold change in caspase 8 activity, Mean ± SEM (unpaired t test) ([1]; GFP beads, n=3) | average fold change in caspase 8 activity relative to empty ([1]; GFP beads, sheet 2018-02-11 (compiled as Rep 2019-02-11)) [fold] | fold change in caspase 8 activity, average of averages ([1]; GFP beads, three runs compiled) [fold] | caspase 8 activity of immunoprecipitates compared to empty beads ([1]; MPZ-GFP immunoprecipitates, 24 hr post-transfection) | Molecule | caspase 8 activity in high MW size exclusion fractions [2] | avg. fold induction, GADD34 ([3]; HCT116, 62 ng) | avg. fold induction, GADD34 ([3]; HCT116, 125 ng) | avg. fold induction, GADD34 ([3]; HCT116, 250 ng) | avg. fold induction, GADD34 ([3]; HCT116, 500 ng)
2.174 | 3.5 | 2.621 ± 0.4397, n=3 fold | 3.5 | 2.621 | 2–3 fold | MPZ-GFP: myelin protein zero with a C-terminal monomeric EGFP, expressed from plasmid (protein, left off: monomeric EGFP, C-terminal, kept, myelin protein zero with a C-terminal monomeric EGFP, expressed from plasmid) IVVYTDREVHGAVGSRVTLHCSFWSSEWVSDDISFTWRYQPEGGRDAISIFHYAKGQPYIDEVGTFKERIQWVGDPRWKDGSIVIHNLDYSDNGTFTCDVKNPPDIVGKTSQVTLYVFEKVPTRYGVVLGAVIGGVLGVVLLLLLLFYVVRYCWLRRQAALQRRLSAMEKGKLHKPGKDASKRGRQTPVLYAMLDHSRSTKAVSEKKAKGLGESRKDKK | increased caspase 8 activity in high-molecular w8 (MW) fractions |  |  |  | 
 |  |  |  |  |  | pRK CHOP (protein, UniProt P35638 1-169, looked up, expression plasmid) DNA damage-inducible …: MAAESLPFSFGTLSSWELEAWYEDLQEVLSSDENGGTYVSPPGNEEEESKIFTTLDPASLAWLTEEEPEPAEVTSTSQSPHSPDSSQSSLAQEEEEEDQGRTRKRKQSGHSPARAGKQRMKEKEQENERKVAQLAEENERLKQEIERLTREVEATRRALIDRMVNLHQA |  | 1.117 | 1.442 | 1.579 | 2.1696
